According to publication PMC4717663 (2014):

Molecular target: pro-TGF-β1 (Homo sapiens, UniProt P01137)
Sequence (P01137 30-278, chain 1 of 2): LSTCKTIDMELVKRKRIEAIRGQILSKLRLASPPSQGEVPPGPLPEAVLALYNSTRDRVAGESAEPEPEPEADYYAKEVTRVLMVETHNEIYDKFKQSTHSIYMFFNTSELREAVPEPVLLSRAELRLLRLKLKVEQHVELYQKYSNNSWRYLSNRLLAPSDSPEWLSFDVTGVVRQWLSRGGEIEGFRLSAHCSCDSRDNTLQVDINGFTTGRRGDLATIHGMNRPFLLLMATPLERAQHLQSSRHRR
Sequence (P01137 279-390, chain 2 of 2): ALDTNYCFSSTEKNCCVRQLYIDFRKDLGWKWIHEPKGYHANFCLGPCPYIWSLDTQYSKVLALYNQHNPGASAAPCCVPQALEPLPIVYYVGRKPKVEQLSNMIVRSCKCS

B1: integrin αVβ6 (protein)
chain 1: FNLDVDSPAEYSGPEGSYFGFAVDFFVPSASSRMFLLVGAPKANTTQPGIVEGGQVLKCDWSSTRRCQPIEFDATGNRDYAKDDPLEFKSHQWFGASVRSKQDKILACAPLYHWRTEMKQEREPVGTCFLQDGTKTVEYAPCRSQDIDADGQGFCQGGFSIDFTKADRVLLGGPGSFYWQGQLISDQVAEIVSKYDPNVYSIKYNNQLATRTAQAIFDDSYLGYSVAVGDFNGDGIDDFVSGVPRAARTLGMVYIYDGKNMSSLYNFTGEQMAAYFGFSVAATDINGDDYADVFIGAPLFMDRGSDGKLQEVGQVSVSLQRASGDFQTTKLNGFEVFARFGSAIAPLGDLDQDGFNDIAIAAPYGGEDKKGIVYIFNGRSTGLNAVPSQILEGQWAARSMPPSFGYSMKGATDIDKNGYPDLIVGAFGVDRAILYRARPVITVNAGLEVYPSILNQDNKTCSLPGTALKVSCFNVRFCLKADGKGVLPRKLNFQVELLLDKLKQKGAIRRALFLYSRSPSHSKNMTISRGGLMQCEELIAYLRDESEFRDKLTPITIFMEYRLDYRTAADTTGLQPILNQFTPANISRQAHILLDCGEDNVCKPKLEVSVDSDQKKIYIGDDNPLTLIVKAQNQGEGAYEAELIVSIPLQADFIGVVRNNEALARLSCAFKTENQTRQVVCDLGNPMKAGTQLLAGLRFSVHQQSEMDTSVKFDLQIQSSNLFDKVSPVVSHKVDLAVLAAVEIRGVSSPDHVFLPIPNWEHKENPETEEDVGPVVQHIYELRNNGPSSFSKAMLHLQWPYKYNNNTLLYILHYDIDGPMNCTSDMEINPLRIKISSLQTTEKNDTVAGQGERDHLITKRDLALSEGDIHTLGCGVAQCLKIVCQVGRLDRGKSAILYVKSLLWTETFMNKENQNHSYSLKSSASFNVIEFPYKNLPIEDITNSTLVTTNVTWGIQPAPMPV
chain 2: GCALGGAETCEDCLLIGPQCAWCAQENFTHPSGVGERCDTPANLLAKGCQLNFIENPVSQVEILKNKPLSVGRQKNSSDIVQIAPQSLILKLRPGGAQTLQVHVRQTEDYPVDLYYLMDLSASMDDDLNTIKELGSRLSKEMSKLTSNFRLGFGSFVEKPVSPFVKTTPEEIANPCSSIPYFCLPTFGFKHILPLTNDAERFNEIVKNQKISANIDTPEGGFDAIMQAAVCKEKIGWRNDSLHLLVFVSDADSHFGMDSKLAGIVIPNDGLCHLDSKNEYSMSTVLEYPTIGQLIDKLVQNNVLLIFAVTQEQVHLYENYAKLIPGATVGLLQKDSGNILQLIISAYEELRSEVELEVLGDTEGLNLSFTAICNNGTLFQHQKKCSHMKVGDTASFSVTVNIPHCERRSRHIIIKPVGLGDALELLVSPECNCDCQKEVEVNSSKCHHGNGSFQCGVCACHPGHMGPRCECGEDMLSTDSCKEAPDHPSCSGRGDCYCGQCICHLSPYGNIYGPYCQCDNFSCVRHKGLLCGGNGDCDCGECVCRSGWTGEYCNCTTSTDSCVSEDGVLCSGRGDCVCGKCVCTNPGASGPTCERCPTCGDPCNSKRSCIECHLSAAGQAREECVDKCKLAGATISEEEDFSKDGSVSCSLQGENECLITFLITTDNEGKTIIHSINEKDCPKPPNIP
B1 showed a Kd of about 10 nM.
